From PMC9313153, “Supramolecular Enzymatic Labeling for Aptamer Switch-Based Electrochemical Biosensor”

Target: carcinoembryonic antigen (CEA) (UniProt P06731 35-685)
Assay: amperometric aptasensor (electrode-immobilized aptamer, HRP-CD label); HRP-CD, H2O2; detection range 10 pg/mL to 1 ng/mL, LOD 3.1 pg/mL (not a Kd); Aptamer electrode washed in 20 mM Tris-HCl pH 7.4, 100 mM NaCl, 5 mM MgCl2; casein block; read-out in 0.1 M sodium phosphate pH 7.4 with H2O2; CEA incubation buffer and temperature not in the material
Conditions: protein: commercial; label: 5' thiol on gold nanoparticles; 3' adamantane for HRP-cyclodextrin; hairpin

carcinoembryonic antigen (CEA), sequence (P06731 35-685): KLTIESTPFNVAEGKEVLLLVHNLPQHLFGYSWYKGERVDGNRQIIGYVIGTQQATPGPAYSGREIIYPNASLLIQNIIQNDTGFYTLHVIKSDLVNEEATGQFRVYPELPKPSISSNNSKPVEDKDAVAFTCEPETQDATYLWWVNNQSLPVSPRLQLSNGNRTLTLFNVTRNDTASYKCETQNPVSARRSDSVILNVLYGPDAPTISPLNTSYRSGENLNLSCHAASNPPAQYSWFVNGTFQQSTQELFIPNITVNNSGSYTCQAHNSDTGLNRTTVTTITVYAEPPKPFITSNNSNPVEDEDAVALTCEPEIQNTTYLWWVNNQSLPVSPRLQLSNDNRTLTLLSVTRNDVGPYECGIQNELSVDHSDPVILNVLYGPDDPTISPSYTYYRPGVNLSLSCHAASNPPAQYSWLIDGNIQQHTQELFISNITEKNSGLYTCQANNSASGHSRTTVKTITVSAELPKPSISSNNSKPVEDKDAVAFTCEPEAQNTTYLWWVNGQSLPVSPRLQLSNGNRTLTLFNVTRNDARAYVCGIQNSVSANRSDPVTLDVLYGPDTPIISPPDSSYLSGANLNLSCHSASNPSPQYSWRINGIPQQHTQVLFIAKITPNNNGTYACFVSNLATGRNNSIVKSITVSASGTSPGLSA

CCACGATACCAGCTTATTCAATTCGTGG (structured_DNA, 5'-HS-(CH2)6; 3'-(CH2)6-NH2 converted to adamantane (ADA)) [Apt-ADA (anti-CEA aptamer)]: binds.
